# In paper PMC11142921 (2024):
# Like-named read-outs stand apart in the source and are kept apart here.
# What was measured:
# Assay in all cases: BLI
# hPAD4 Y435A = hPAD4 Y435A (human, UniProt Q9UM07 1-663, Y435A)
# hPAD4 N438R = hPAD4 N438R (human, UniProt Q9UM07 1-663, N438R)
# [1] = biological target: hPAD4 R8E–Y435A double mutant (human, UniProt Q9UM07 1-663, R8E | Y435A)
# [2] = biological target: T1, human protein arginine deiminase 4 (hPAD4), wild type (human, UniProt Q9UM07 1-663, biotin on the N-terminal AviTag)
# T1 sequence (Q9UM07 whole entry): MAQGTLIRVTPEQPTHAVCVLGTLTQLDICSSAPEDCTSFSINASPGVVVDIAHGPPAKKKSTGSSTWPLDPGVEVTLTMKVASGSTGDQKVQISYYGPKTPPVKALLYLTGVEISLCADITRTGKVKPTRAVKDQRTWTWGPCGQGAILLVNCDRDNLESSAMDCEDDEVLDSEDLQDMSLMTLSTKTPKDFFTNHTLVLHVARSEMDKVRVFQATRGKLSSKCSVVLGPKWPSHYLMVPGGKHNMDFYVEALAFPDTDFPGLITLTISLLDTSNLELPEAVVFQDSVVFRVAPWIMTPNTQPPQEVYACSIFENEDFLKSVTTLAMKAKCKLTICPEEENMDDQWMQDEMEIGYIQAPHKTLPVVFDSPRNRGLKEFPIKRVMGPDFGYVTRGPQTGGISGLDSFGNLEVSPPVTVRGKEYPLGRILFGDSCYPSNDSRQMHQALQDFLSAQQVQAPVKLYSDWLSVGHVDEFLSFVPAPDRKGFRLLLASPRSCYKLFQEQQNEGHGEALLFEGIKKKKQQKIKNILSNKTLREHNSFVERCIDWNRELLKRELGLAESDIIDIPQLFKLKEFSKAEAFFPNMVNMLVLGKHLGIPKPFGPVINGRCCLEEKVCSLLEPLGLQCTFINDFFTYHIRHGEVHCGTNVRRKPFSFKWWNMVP
# [3] = biological target: T1, human protein arginine deiminase 4 …; remark: listed apart in the source
# [4] = biological target: T1, human protein arginine deiminase 4 …; remark: listed apart in the source
# Chain of hPAD4 R8E–Y435A double mutant (Q9UM07 whole entry R8E/Y435A): as the sequence (Q9UM07 whole entry) above, with R8E, Y435A counted along it
# Chain of hPAD4 Y435A (Q9UM07 whole entry Y435A): as the sequence (Q9UM07 whole entry) above, with Y435A counted along it
# Chain of hPAD4 N438R (Q9UM07 whole entry N438R): as the sequence (Q9UM07 whole entry) above, with N438R counted along it
Binder,Kd [3],Kd [4],other results
"hA362 Fab (Fab, V domains shown) VH: EVQLVESGGGLVQPGGSLRLSCAASGFNVSYYSIHWVRQAPGKGLEWVASISPYYGSTYYADSVKGRFTISADTSKNTAYLQMNSLRAEDTAVYYCARHPYRKGYSGLDYWGQGTLVTVSS VL: DIQMTQSPSSLSASVGDRVTITCRASQSVSSAVAWYQQKPGKAPKLLIYSASSLYSGVPSRFSGSRSGTDFTLTISSLQPEDFATYYCQQSSYLPLFTFGQGTKVEIK",–,–,Kd (hPAD4 Y435A): 17.5 nM; Kd (hPAD4 N438R): 1.56 nM; Kd [1]: 269 nM; Kd [2]: 1.7 nM
"hA362 IgG (antibody, V domains shown) VH: EVQLVESGGGLVQPGGSLRLSCAASGFNVSYYSIHWVRQAPGKGLEWVASISPYYGSTYYADSVKGRFTISADTSKNTAYLQMNSLRAEDTAVYYCARHPYRKGYSGLDYWGQGTLVTVSS VL: DIQMTQSPSSLSASVGDRVTITCRASQSVSSAVAWYQQKPGKAPKLLIYSASSLYSGVPSRFSGSRSGTDFTLTISSLQPEDFATYYCQQSSYLPLFTFGQGTKVEIK",0.001 nM,–,–
"hI365 IgG (antibody, V domains shown) VH: EVQLVESGGGLVQPGGSLRLSCAASGFNFYYSIHWVRQAPGKGLEWVASISPYSGYTSYADSVKGRFTISADTSKNTAYLQMNSLRAEDTAVYYCARKHPGSYPFWGWALDYWGQGTLVTVSS VL: DIQMTQSPSSLSASVGDRVTITCRASQSVSSAVAWYQQKPGKAPKLLIYSASSLYSGVPSRFSGSRSGTDFTLTISSLQPEDFATYYCQQSSSSLVTFGQGTKVEIK",1.8 nM,–,–

# Continued, in another order:
Kd [3],Kd [4],Binder,other results
–,2.4 nM,"E3 (affinity-matured variant of hI365) (antibody, V domains shown) VH: EVQLVESGGGLVQPGGSLRLSCAASGFNFFYSIHWVRQAPGKGLEWVASISPYTDYTSYADSVKGRFTISADTSKNTAYLQMNSLRAEDTAVYYCARKHPGSYPFWGFALDYWGQGTLVTVSS VL: DIQMTQSPSSLSASVGDRVTITCRASQSVSSAVAWYQQKPGKAPKLLIYSASSLYSGVPSRFSGSRSGTDFTLTISSLQPEDFATYYCQQSSSSLVTFGQGTKVEIK",–
–,1.3 nM,"E6 (affinity-matured variant of hI365) (antibody, V domains shown) VH: EVQLVESGGGLVQPGGSLRLSCAASGFNFYYSIHWVRQAPGKGLEWVASISPYTDRTSYADSVKGRFTISADTSKNTAYLQMNSLRAEDTAVYYCARKHPGRYPNWGFALDYWGQGTLVTVSS VL: DIQMTQSPSSLSASVGDRVTITCRASQSVSSAVAWYQQKPGKAPKLLIYSASSLYSGVPSRFSGSRSGTDFTLTISSLQPEDFATYYCQQSMSSQLVTFGQGTKVEIK",–
